The record followed here is article PMC8249616, “Structural basis of the activation of c-MET receptor” (Nature Communications, 2021).

The chains are these.
B2: NK1 (human HGF amino acids 31-209) (ligand, UniProt P14210 31-209, looked up)
chain: GQRKRRNTIHEFKKSAKTTLIKIDPALKIKTKKVNTADQCANRCTRNKGLPFTCKAFVFDKARKQCLWFPFNSMSSGVKKEFGHEFDLYENKDYIRNCIIGKGRSYKGTVSITKSGIKCQPWSSMIPHEHSFLPSSYRGKDLQENYCRNPRGEEGGPWCFTSNPEVRYEVCDIPQCSEV
notes: human HGF amino acids 31-209 (N and K1 domains), after an HR3C site; source: E. coli Rosetta-gami 2 (DE3), purified (Ni Sepharose, SEC); not shown: DsBC, N-terminal, cleaved; His6, N-terminal, cleaved

Series [1] concerns the target T1, full-length human hepatocyte growth factor (HGF), wild type (human, UniProt P14210 32-728).
T1 construct: signal peptide in the construct; full-length human HGF followed by an HR3C site and a His6 tag; written here as one chain; also called HGF WT; HGF I; source: HEK293F infected with baculovirus (pEZT-BM), 5% FBS in the medium, secreted, purified (cation exchange, SEC)
Briefly: SEC; c-MET927 or c-MET927-LZ alone and mixed with HGF in vitro (Supplementary Fig. 1); whether heparin was added is not told. Conditions: both partners purified.

Series [2] concerns the molecule itself. The series is described as above.
Series [3] has as its target B2. Briefly: cryo-EM structure; c-MET927-LZ mixed with NK1 and heparin (Tinzaparin sodium) 1:1:4, complex isolated by SEC in 20 mM Hepes pH 7.5, 100 mM NaCl; 2 mM fluorinated Fos-Choline-8 added before freezing. To be noted: both partners purified.
Series [4] concerns the molecule itself. The series is described as above.

T1 sequence (P14210 32-728): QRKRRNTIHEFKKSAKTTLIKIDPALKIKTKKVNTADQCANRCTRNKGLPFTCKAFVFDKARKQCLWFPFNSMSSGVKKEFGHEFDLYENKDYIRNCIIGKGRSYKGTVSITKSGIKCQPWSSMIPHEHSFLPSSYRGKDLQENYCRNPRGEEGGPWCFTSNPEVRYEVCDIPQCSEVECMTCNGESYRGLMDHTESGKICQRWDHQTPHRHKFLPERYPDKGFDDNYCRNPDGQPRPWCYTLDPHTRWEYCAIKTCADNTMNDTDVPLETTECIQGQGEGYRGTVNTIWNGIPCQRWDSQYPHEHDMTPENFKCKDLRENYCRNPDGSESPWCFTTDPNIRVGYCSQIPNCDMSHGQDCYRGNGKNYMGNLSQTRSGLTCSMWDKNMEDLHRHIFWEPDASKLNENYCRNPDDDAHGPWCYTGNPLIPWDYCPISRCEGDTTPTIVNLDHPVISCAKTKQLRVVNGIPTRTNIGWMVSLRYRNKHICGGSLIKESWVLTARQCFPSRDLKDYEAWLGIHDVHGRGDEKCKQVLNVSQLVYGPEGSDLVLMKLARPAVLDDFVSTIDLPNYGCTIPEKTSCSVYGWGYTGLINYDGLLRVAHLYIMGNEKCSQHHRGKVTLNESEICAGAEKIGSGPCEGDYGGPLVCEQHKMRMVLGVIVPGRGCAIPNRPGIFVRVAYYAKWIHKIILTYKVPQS

B1: c-MET927-LZ (c-MET 1-927, GGGGS linker, GCN4 leucine zipper), tags cleaved (receptor)
chain: not shown
notes: signal peptide in the construct; linker; written here as one chain; also called c-MET-LZ; c-MET I; source: HEK293F infected with baculovirus (pEZT-BM), secreted, purified (Ni resin, SEC); not shown: Tsi3, C-terminal, cleaved; His6, C-terminal, cleaved
Regarding B1, the binding result in series [1] and in series [3] was “binds” in each case. Also, the “stoichiometry N” value in series [2] stood at 2.
On to B2, for which the “stoichiometry N” value in series [4] worked out at 2.
